# Test results taken from patent publication US20120165267A1 (Genentech, published 2012).
# Numbering of substitutions follows the chain as printed. Names may count otherwise.
# T1: DcR2-IgG (UniProt Q9UBN6 56-211)
# T1 sequence (Q9UBN6 whole entry, species assumed, looked up): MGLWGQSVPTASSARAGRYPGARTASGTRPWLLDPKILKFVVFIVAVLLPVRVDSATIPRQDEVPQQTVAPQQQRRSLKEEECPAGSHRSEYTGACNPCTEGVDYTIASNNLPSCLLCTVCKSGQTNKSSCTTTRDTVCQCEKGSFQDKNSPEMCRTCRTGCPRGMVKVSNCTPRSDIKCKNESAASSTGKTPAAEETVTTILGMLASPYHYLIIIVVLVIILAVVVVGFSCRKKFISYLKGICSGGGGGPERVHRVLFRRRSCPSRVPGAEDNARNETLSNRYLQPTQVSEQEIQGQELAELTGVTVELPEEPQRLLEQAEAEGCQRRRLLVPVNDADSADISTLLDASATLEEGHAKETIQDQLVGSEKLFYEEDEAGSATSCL
# T2: DcR1 receptor-IgG (UniProt O14798 26-236)
# T2 construct: Captured as receptor-IgG on Protein A beads; construct not described
# T2 sequence (O14798 whole entry, species assumed, looked up): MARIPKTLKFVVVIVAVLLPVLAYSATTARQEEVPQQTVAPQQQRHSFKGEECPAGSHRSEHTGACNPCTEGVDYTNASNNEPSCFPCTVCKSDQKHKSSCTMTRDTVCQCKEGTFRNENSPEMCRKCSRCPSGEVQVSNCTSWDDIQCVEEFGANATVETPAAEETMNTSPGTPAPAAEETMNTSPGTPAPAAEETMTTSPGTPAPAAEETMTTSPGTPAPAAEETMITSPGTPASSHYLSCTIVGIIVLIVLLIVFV
# B1: DR4-selective phage clone 11 (ligand)
# chain: SEETISTVQEKQQNISPLVRERGPQRVAAHITGTRGRSNTLSSPNSKNEKALGRKINSWESSRSGHSFLSNLHLRNGELVIHEKGFYYIYSQTAFRFSEEIKEGTSNDKQMVQYIYKWTDYPDPILLMKSARNSCWSKDAEYGLYSIYQGGIFELKENDRIFVSVTNEHLIDMDHEASFFGAFLVG
# notes: also called DR4-11
# B2: DR4-selective phage clone 8 (ligand)
# chain: B1 chain with G104V, S106R
# notes: also called DR4-8
# B3: DR4-selective phage clone 9 (ligand)
# chain: B1 chain with G104R, S106R
# notes: also called DR4-9
# B4: DR4-selective phage clone 13 (ligand)
# chain: B1 chain with S98K, S106G
# notes: also called DR4-13
# B5: Apo2L.DR5-8 (ligand)
# chain: VRERGPQRVAAHITGTRGRSNTLSSPNSKNEKALGRKINSWESSRSGHSFLSNLHLRNGELVIHEKGFYYIYSQTQFKFREEIKENTKNDKQMVQYIYKYTSYPDPILLMKSARNSCWSKDAEYGLYSIYQGGIFELKENDRIFVSVTNERLLQMDHEASFFGAFLVG
# notes: also called Apo2L/TRAIL.DR5-8
# B6: Apo2L/TRAIL(114-281) mutant DR5-11 (ligand)
# chain: B5 chain with Q76A, K78R, R80K, R151G, L153V, Q154D, D156S
# notes: Untagged, from pAPOK5.0
# B7: Flag.Apo2L.DR4-9 (ligand)
# chain: B5 chain with Q76A, K78R, R80S, N86R, K88R, Y100W, S102D, R151H, L153I, Q154D
# notes: not shown: N-terminal flag tag from pFLAG-MAC
# B8: Flag.Apo2L.DR4-8 (ligand)
# chain: B5 chain with Q76A, K78R, R80S, N86V, K88R, Y100W, S102D, R151H, L153I, Q154D
# notes: as for B7
# B9: Apo2L/TRAIL(114-281) mutant DR5-23 (ligand)
# chain: B5 chain with Q76A, R151S, Q154D, D156E
# notes: Untagged, from pAPOK5.0
# B10: Apo2L/TRAIL(114-281) mutant DR5-21 (ligand)
# chain: B5 chain with Q76A, R80K, R151D, Q154N, D156E
# notes: Untagged, from pAPOK5.0; h-0007 lists D267Q
# B11: Apo2L.DR5-8B (ligand)
# chain: B5 chain with R151H, L153I, Q154D
# notes: Subcloned into pAPOK5.0 (114-281 form)
# B12: Flag.Apo2L.DR5-2 (ligand)
# chain: B5 chain with Q76A, R80K, R151H, L153I, Q154D
# notes: as for B7
# B13: Apo2L.DR5-8C (ligand)
# chain: B5 chain with R151H, Q154D
# notes: as for B11
# B14: Apo2L/TRAIL(114-281) mutant DR5-4 (ligand)
# chain: B5 chain with Q76A, K78R, R151Q, Q154D, D156N
# notes: Untagged, from pAPOK5.0
# B15: Flag.Apo2L.DR5-21 (ligand)
# chain: B5 chain with Q76A, R80K, R151D, Q154N, D156E
# notes: as for B7
# B16: Flag.Apo2L.DR5-1 (ligand)
# chain: B5 chain with Q76A, R80K, R151A, L153I, Q154D
# notes: as for B7
# B17: Flag.Apo2L.DR5-8 (ligand)
# chain: B5 chain
# notes: also called Flag-Apo21.DR5-8; not shown: N-terminal flag tag from pFLAG-MAC
# B18: Flag.Apo2L.DR5-23 (ligand)
# chain: B5 chain with Q76A, R151S, Q154D, D156E
# notes: as for B7
# B19: Apo2L/TRAIL(114-281) mutant DR5-5 (ligand)
# chain: B5 chain with Q76S, K78R, R80T, R151G, Q154D, D156N
# notes: Untagged, from pAPOK5.0
# Experiments:
# BSA = biological target: T3, BSA (UniProt P02769 25-607); experiment: spot ELISA, phage on coated protein
# T3 construct: Control protein of the spot ELISA
# DR5-IgG [1] = biological target: T4, DR5-IgG (human, UniProt O14763 56-184); experiment: competition phage ELISA: phage clone on wells coated with DR4-IgG, competed by rising soluble DR5-IgG, bound phage detected with anti-M13 antibody-HRP, A450
# T4 construct: also called Apo-2-IgG; not shown: IgG part; prepared as in WO98/51793, not described here
# Description: Relative binding strengths for 4 of the clones from the DR4 library were determined by competition phage ELISA (FIGS. 15 and 16). In this assay, a fixed concentration of phage is added to wells coated with receptor-IgG in the presence of an increasing concentration of receptor-IgG in solution. After incubation to allow binding and washing to remove unbound phage, the bound phage is determined with the HRP-coupled, anti-M13 antibody (Pharmacia). Analysis of the ELISA signal as a function of receptor-IgG concentration in solution by using a 4-parameter fit yields the IC50 value. Since the IC50 value will vary with phage concentration, the phage clones were first titered to determine the dilution giving equal signal strength for the 4 clones.
# DR5-IgG [2] = biological target: T4, DR5-IgG; experiment: spot ELISA, phage on coated protein
# DR5-IgG [3] = biological target: T4, DR5-IgG; experiment: BIAcore, immobilized receptor-IgG
# DR5-IgG [4] = biological target: T4, DR5-IgG; experiment: BIAcore, immobilized receptor-IgG; against wild-type Apo2L/TRAIL(114-281)
# Description: (§1) Briefly, dissociation constants (Kd) for binding of Apo-2L variants (see Tables II and III) to immobilized receptor immunoadhesins were determined from surface plasmon resonance (SPR) measurements on a Pharmacia BIAcore 3000. DR5-IgG (also referred to as Apo-2-IgG) and DcR2-IgG receptor immunoadhesins were prepared as described in WO98/51793 published Nov. 19, 1998 and WO99/10484 published Mar. 9, 1999, respectively. DR4-IgG was prepared as follows. […] Sensorgrams were recorded for Apo-2L binding at concentrations ranging from 15.6 nM to 500 nM in 2-fold increments. The kinetics constants were determined by non-linear regression analysis and used to calculate the binding constants.
# KD values determined by BIAcore analysis are reported relative to the value calculated for the wild-type protein. Apoptosis-induction is evaluated from the ED₅₀ value (ng/mL) in the presence and absence of 2 μg/mL M2 antibody (Sigma).
# DR5-IgG [5] = biological target: T4, DR5-IgG; experiment: BIAcore; against Flag.Apo2L.WT
# Description: as §1
# DcR2-IgG = biological target: T1, DcR2-IgG; experiment: AlphaQuest (CARB-AQ) displacement of biotinylated Apo2L/TRAIL from receptor-IgG; against Flag-Apo2L.WT
# DcR1 receptor-IgG = biological target: T2, DcR1 receptor-IgG; experiment: as above
# DR5-IgG [6] = biological target: T4, DR5-IgG; experiment: as above
binder,measurement,setting,value
B1,binding result,BSA,no binding
same,binding result,DR5-IgG [1],no binding (tested: 1000 nM)
B2,binding result,DR5-IgG [2],no binding
same,binding result,BSA,no binding
B3,binding result,DR5-IgG [2],no binding
same,binding result,BSA,no binding
B4,binding result,BSA,no binding
same,binding result,DR5-IgG [1],no binding (tested: 1000 nM)
B5,DR5-binding (ratio relative to wild-type Apo2L),DR5-IgG [3],0.6 ratio
B6,KD ratio (mutant/wt),DR5-IgG [4],2.2 ratio
B7,DR5 KD (mut/wt),DR5-IgG [5],1200 ratio
same,IC50 ratio (mutant/wt),DcR2-IgG,18 ratio
same,IC50 ratio (mutant/wt),DcR1 receptor-IgG,4 ratio
B8,DR5 KD (mut/wt),DR5-IgG [5],1100 ratio
same,IC50 ratio (mutant/wt),DcR2-IgG,15 ratio
same,IC50 ratio (mutant/wt),DcR1 receptor-IgG,5.5 ratio
B9,KD ratio (mutant/wt),DR5-IgG [4],2.4 ratio
B10,KD ratio (mutant/wt),DR5-IgG [4],1.2 ratio
B11,DR5-binding (ratio relative to wild-type Apo2L),DR5-IgG [3],0.6 ratio
B12,DR5 KD (mut/wt),DR5-IgG [5],1.9 ratio
same,IC50 ratio (mutant/wt),DR5-IgG [6],2.8 ratio
same,IC50 ratio (mutant/wt),DcR2-IgG,5 ratio
B13,DR5-binding (ratio relative to wild-type Apo2L),DR5-IgG [3],0.6 ratio
B14,KD ratio (mutant/wt),DR5-IgG [4],1.3 ratio
B15,DR5 KD (mut/wt),DR5-IgG [5],1 ratio
same,IC50 ratio (mutant/wt),DR5-IgG [6],1.9 ratio
same,IC50 ratio (mutant/wt),DcR2-IgG,9.4 ratio
B16,DR5 KD (mut/wt),DR5-IgG [5],2.2 ratio
same,IC50 ratio (mutant/wt),DR5-IgG [6],2.4 ratio
same,IC50 ratio (mutant/wt),DcR2-IgG,32 ratio
B17,DR5 KD (mut/wt),DR5-IgG [5],0.8 ratio
same,IC50 ratio (mutant/wt),DR5-IgG [6],0.7 ratio
B18,DR5 KD (mut/wt),DR5-IgG [5],2.4 ratio
same,IC50 ratio (mutant/wt),DR5-IgG [6],2.3 ratio
same,IC50 ratio (mutant/wt),DcR2-IgG,24 ratio
B19,KD ratio (mutant/wt),DR5-IgG [4],2.5 ratio
